Consider 42 variants from PMC10244618.

Several values for one entry are separate records, joined by “and”; a condition that tells them apart may be missing. Equal entries are not always repeated.

To fix the notation:
B1: NF2 (merlin) isoform 7, human, full length (507 aa, lacks exons 2-3 = isoform-1 residues 39-121; exon-16 C-terminus), P35240-4 (parent)
chain: MAGAIASRMSFSSLKRKQPKTFTVRIVTMDAEMEFNCEVKKQILDEKIYCPPEASVLLASYAVQAKYGDYDPSVHKRGFLAQEELLPKRVINLYQMTPEMWEERITAWYAEHRGRARDEAEMEYLKIAQDLEMYGVNYFAIRNKKGTELLLGVDALGLHIYDPENRLTPKISFPWNEIRNISYSDKEFTIKPLDKKIDVFKFNSSKLRVNKLILQLCIGNHDLFMRRRKADSLEVQQMKAQAREEKARKQMERQRLAREKQMREEAERTRDELERRLLQMKEEATMANEALMRSEETADLLAEKAQITEEEAKLLAQKAAEAEQEMQRIKATAIRTEEEKRLMEQKVLEAEVLALKMAEESERRAKEADQLKQDLQEAREAERRAKQKLLEIATKPTYPPMNPIPAPLPPDIPSFNLIGDSLSFDFKDTDMKRLSMEIEKEKVEYMEKSKHLQEQLNELKTEIEALKLKERETALDILHNENSDRGGSSKHNTIKKPQAQGRRPICI

The experiment covers variants of B1. Description: reverse yeast two-hybrid deep mutational scan (rY2H-seq): NF2 isoform 7 mutant library as bait mated with wild-type prey strains; selection on medium lacking adenine for non-interacting pairs; NextSeq paired-end sequencing; enrichment vs …. To be noted: yeast diploids after mating (RBait_S3 x RPrey_S3), 30 °C, selection for reporter genes on NB agar, HIGHER = WEAKER BINDING (the opposite of display enrichments): higher = stronger loss of interaction: reverse Y2H selects yeast in which bait and prey do NOT interact (growth without adenine), so a …, hits-only table, scale: rY2H score, numbering: uniprot, sequence starts at 1. On the technique in general: Reporter assays use an easily measured gene product as a stand-in for the process of interest.

Setting [1] is: with EMILIN1 (elastin microfibril interfacer 1), Q9Y6C2, human ABL2 co-expressed as the kinase-dead K35M mutant ….
[2] abbreviates: with KDM1A (lysine-specific histone demethylase 1A; the table's label AOF2 is a gene synonym of KDM1A), O60341, human ABL2 co-expressed as the kinase-dead K35M mutant ….
The mark [3] stands for this setting: with KDM1A (lysine-specific histone demethylase 1A; the table's label AOF2 is a gene synonym of KDM1A), O60341, human tyrosine kinase ABL2 co-expressed as the active kinase ….
The mark [4] stands for this setting: with EMILIN1 (elastin microfibril interfacer 1), Q9Y6C2, human tyrosine kinase ABL2 co-expressed as the active kinase ….
The mark [5] stands for this setting: with NF2 C-terminal domain (wild type; homomeric NF2-NF2 interaction), P35240, human ABL2 co-expressed as the kinase-dead K35M mutant …, partner unresolved.
Where [6] appears, read: with PIK3R3 (phosphatidylinositol 3-kinase regulatory subunit gamma), Q92569, human tyrosine kinase ABL2 co-expressed as the active kinase ….

In the case of D30A, under setting [1], the enrichment was determined as 6.06.

As to D30L, the enrichment under setting [1] was 3.86.

As for I141A, the enrichment is, setting by setting: under setting [1], 20.7; under setting [2], 21.3 and 14.9; under setting [3], 30.8.

For K211I, the enrichment under setting [1] worked out at 3.12; the enrichment under setting [4] is 3.16; the enrichment under setting [2] came out at 5.27; the enrichment under setting [3] stood at 2.6; the enrichment under setting [5] turned out to be 2.67; the enrichment under setting [6] is 2.81 and 3.72.

As to L214E, the enrichment was 8.22 under setting [1]; 5.18 and 15.2 under setting [4]; 13.4 under setting [2]; 2.48 under setting [5]; 30 under setting [6].

For the variant L57E, the enrichment under setting [1] is 1.73.

K246R: the enrichment stood at 1.4 under setting [1] and 1.64 under setting [4].

For the variant K246A, under setting [1], the enrichment came out at 2.24.

Take K246L: under setting [1], the enrichment is 3.03 and 1.45.

Regarding R226G, the enrichment under setting [1] came out at 1.63.

Turning to L58K, the enrichment was 3.39 under setting [1]; 9.82 and 9.59 under setting [4]; 7.46 and 14.7 under setting [2]; 7.51 under setting [3]; 2.82 under setting [5].

Take E259L: the enrichment reads like this: under setting [1], 1.55; under setting [4], 1.72; under setting [2], 3.91 and 3.57.

Consider E259V, for which the enrichment by setting is: under setting [1], 2.5; under setting [4], 1.65; under setting [2], 2.8; under setting [3], 2.08; under setting [5], 2.03; under setting [6], 4.06 and 2.02.

As for E259T, the enrichment by setting is: under setting [1], 17.4 and 9.29; under setting [4], 19.6; under setting [2], 38.4; under setting [5], 4.23.

As for D69A, the enrichment under setting [1] turned out to be 2.53.

Consider P174T, for which the enrichment under setting [1] was determined as 2.95; the enrichment under setting [2] is 1.5 and 1.57 and 1.64; the enrichment under setting [6] was 2.16 and 1.7.

Take G146L: the enrichment by setting is: under setting [1], 2.08; under setting [4], 6.29.

As to Q64A, the enrichment is 2.42 under setting [1]; 8.91 and 12.3 under setting [6].

With N165E, the enrichment runs as follows: under setting [1], 5.14 and 5.74; under setting [4], 3.48 and 2.42; under setting [2], 11.1 and 8.25; under setting [3], 4.76 and 3.86; under setting [5], 5.73; under setting [6], 7.65 and 9.27.

N165A: the enrichment is, setting by setting: under setting [1], 3.8 and 4.08; under setting [4], 5.59 and 4.51; under setting [2], 5.23 and 4.34; under setting [3], 11.8; under setting [5], 3.7 and 6.3.

Turning to N165L, the enrichment is, setting by setting: under setting [1], 3.15 and 2.54; under setting [4], 3.7; under setting [2], 6 and 7.17; under setting [3], 1.81; under setting [5], 2.17 and 4.23; under setting [6], 8.43.

Take I171K: the enrichment was found to be 2.56 under setting [1]; 1.76 under setting [4]; 4.6 under setting [2]; 8.42 under setting [3]; 6.85 under setting [6].

In the case of A155L, the enrichment under setting [1] is 2.92 and 3.34.

K170R: the enrichment stood at 2.58 under setting [1], 3.72 under setting [3] and 2.74 under setting [6].

Turning to T168L, the enrichment reads like this: under setting [1], 2.75; under setting [4], 6.59 and 12.1; under setting [2], 7.24.

In the case of D162K, the enrichment under setting [1] came to 1.74.

For D162L, the enrichment is, setting by setting: under setting [1], 3.3; under setting [2], 2.41; under setting [5], 2.21.

As to K15A, the enrichment is, setting by setting: under setting [1], 6.29; under setting [4], 6.35 and 3.55; under setting [2], 13.9; under setting [3], 2.57; under setting [6], 7.57.

As to N176L, the enrichment is, setting by setting: under setting [1], 7.14; under setting [4], 1.82; under setting [5], 10.6; under setting [6], 1.81.

In the case of R227K, the enrichment under setting [1] amounted to 1.95.

As for K88R, the enrichment runs as follows: under setting [1], 1.95; under setting [4], 2.74.

On to C217Y, for which the enrichment stood at 2.4 under setting [1], 1.59 under setting [4] and 2.94 under setting [2].

Consider R253K, for which the enrichment is 5.53 under setting [1]; 10.6 under setting [4]; 6.44 and 7.44 under setting [2]; 1.43 under setting [5].

Turning to H159S, the enrichment under setting [1] was 21.9 and the enrichment under setting [5] was 18.

With Y161K, the enrichment came to 4.91 under setting [1], 3.06 under setting [2], 8.45 under setting [3] and 5.71 under setting [6].

On to Y161W, for which the enrichment under setting [1] is 3.13 and 2.01; the enrichment under setting [4] worked out at 6.81; the enrichment under setting [6] worked out at 5.85.

Take Y161A: the enrichment runs as follows: under setting [1], 2.53; under setting [4], 2.63; under setting [3], 2.23; under setting [5], 2.34; under setting [6], 2.72.

Regarding Y161L, the enrichment is, setting by setting: under setting [1], 3.35 and 1.58; under setting [2], 2.08; under setting [6], 2.22.

E164A: the enrichment is, setting by setting: under setting [1], 2.89 and 5.48; under setting [4], 2.44; under setting [2], 5.57; under setting [5], 1.48; under setting [6], 6.96.

Take E164K: the enrichment worked out at 2.27 under setting [1] and 2.53 under setting [6].

Take E164L: the enrichment came out at 2.39 under setting [1], 3.94 under setting [2] and 2.07 under setting [6].

Consider A59L, for which the enrichment is 10.7 and 8.14 under setting [1]; 15.4 under setting [2]; 29 under setting [3]; 7.54 under setting [5]; 25.9 under setting [6].
